# Results: the supplement of paper PMC9112550, “Optimization of the antimicrobial peptide Bac7 by deep mutational scanning” (BMC Biology, 2022)
# Tested on: Escherichia coli TOP10
# Assay: shrunken log2 fold change of peptide-encoding DNA abundance (4.5 h post-induction vs induction); higher = less antimicrobial activity (less host growth inhibition)
# Conditions: time post-induction: 4.5 h; library: site-saturation at positions 5, 18, 19, 20
# 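Further: peptides expressed intracellularly from a pBAD plasmid library in pooled LB shake-flask culture, induced with 0.3% L-arabinose, DNA abundance read by NGS, three biological replicates, DESeq2 with apeglm shrinkage.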
row,Sequence,shrunken log2 fold change
1,RRIRIRPPRLPRPRPRPCQTPRP,-0.02
2,RRIRHRPPRLPRPRPRPLKIPRP,-0.0842
3,RRIRQRPPRLPRPRPRPEMKPRP,-0.0789
4,RRIRMRPPRLPRPRPRPFKHPRP,-0.306
5,RRIRWRPPRLPRPRPRPMQCPRP,0.0434
6,RRIRMRPPRLPRPRPRPVITPRP,0.043
7,RRIRPRPPRLPRPRPRPKVDPRP,0.0884
8,RRIRIRPPRLPRPRPRPAKCPRP,-0.126
9,RRIRHRPPRLPRPRPRPFCIPRP,-0.538
10,RRIRSRPPRLPRPRPRPYVTPRP,-0.266
11,RRIRWRPPRLPRPRPRPLWFPRP,0.134
12,RRIRFRPPRLPRPRPRPAKCPRP,-0.00691
13,RRIRERPPRLPRPRPRPPYFPRP,-0.441
14,RRIRKRPPRLPRPRPRPSTTPRP,0.162
15,RRIRGRPPRLPRPRPRPMGGPRP,0.458
16,RRIRKRPPRLPRPRPRPNFNPRP,-0.0705
17,RRIRFRPPRLPRPRPRPKNIPRP,-0.485
18,RRIRRRPPRLPRPRPRPFSHPRP,-0.0121
19,RRIRKRPPRLPRPRPRPIAIPRP,-0.282
20,RRIRDRPPRLPRPRPRPFQPPRP,0.0201
21,RRIRNRPPRLPRPRPRPHGRPRP,0.00746
22,RRIRERPPRLPRPRPRPMDCPRP,-0.149
23,RRIRKRPPRLPRPRPRPMHWPRP,0.136
24,RRIRSRPPRLPRPRPRPEQHPRP,-0.101
25,RRIRMRPPRLPRPRPRPQASPRP,0.309

row,Sequence,shrunken log2 fold change
1,RRIRYRPPRLPRPRPRPWLMPRP,-0.0285
2,RRIRDRPPRLPRPRPRPQIVPRP,-0.00245
3,RRIRGRPPRLPRPRPRPDLPPRP,0.921
4,RRIRARPPRLPRPRPRPSWSPRP,0.0204
5,RRIRCRPPRLPRPRPRPMRSPRP,0.211
6,RRIRIRPPRLPRPRPRPTMSPRP,-0.124
7,RRIRARPPRLPRPRPRPKVCPRP,-0.132
8,RRIRGRPPRLPRPRPRPREMPRP,1.2
9,RRIRMRPPRLPRPRPRPNQGPRP,-0.0312
10,RRIRPRPPRLPRPRPRPGGLPRP,0.131
11,RRIRFRPPRLPRPRPRPSKMPRP,-0.351
12,RRIRSRPPRLPRPRPRPSQYPRP,-0.466
13,RRIRQRPPRLPRPRPRPDKKPRP,-0.0704
14,RRIRGRPPRLPRPRPRPKENPRP,0.791
15,RRIRWRPPRLPRPRPRPLRGPRP,1.01
16,RRIRVRPPRLPRPRPRPPRCPRP,0.324
17,RRIRMRPPRLPRPRPRPEFIPRP,0.01
18,RRIRTRPPRLPRPRPRPQIWPRP,0.0741
19,RRIRARPPRLPRPRPRPEQCPRP,0.42
20,RRIRGRPPRLPRPRPRPEKGPRP,0.136
21,RRIRKRPPRLPRPRPRPAPCPRP,0.432
22,RRIRRRPPRLPRPRPRPDIHPRP,-0.122
23,RRIRARPPRLPRPRPRPKGRPRP,0.368
24,RRIRCRPPRLPRPRPRPFHAPRP,-0.44
25,RRIRYRPPRLPRPRPRPMCIPRP,-0.101

row,Sequence,shrunken log2 fold change
1,RRIRERPPRLPRPRPRPKAQPRP,0.221
2,RRIRDRPPRLPRPRPRPPDCPRP,0.077
3,RRIRVRPPRLPRPRPRPKYSPRP,-0.122
4,RRIRDRPPRLPRPRPRPWSAPRP,-0.347
5,RRIRARPPRLPRPRPRPAFAPRP,0.685
6,RRIRFRPPRLPRPRPRPCQMPRP,-0.981
7,RRIRVRPPRLPRPRPRPISRPRP,0.107
8,RRIRARPPRLPRPRPRPSKWPRP,-0.101
9,RRIRKRPPRLPRPRPRPVHEPRP,0.325
10,RRIRNRPPRLPRPRPRPDSYPRP,-0.054
11,RRIRWRPPRLPRPRPRPDAWPRP,0.884
12,RRIRERPPRLPRPRPRPQTFPRP,-0.0695
13,RRIRQRPPRLPRPRPRPWLLPRP,-0.151
14,RRIRLRPPRLPRPRPRPMHWPRP,0.0928
15,RRIRRRPPRLPRPRPRPLYLPRP,0.926
16,RRIRQRPPRLPRPRPRPHMNPRP,-0.76
17,RRIRARPPRLPRPRPRPPDEPRP,0.338
18,RRIRMRPPRLPRPRPRPDSRPRP,-0.00783
19,RRIRRRPPRLPRPRPRPYRTPRP,-0.394
20,RRIRARPPRLPRPRPRPKCSPRP,0.0215
21,RRIRMRPPRLPRPRPRPFYRPRP,-0.0105
22,RRIRMRPPRLPRPRPRPENCPRP,0.0159
23,RRIRHRPPRLPRPRPRPWVTPRP,0.0283
24,RRIRCRPPRLPRPRPRPSHFPRP,-0.345
25,RRIRHRPPRLPRPRPRPMAFPRP,0.166

row,Sequence,shrunken log2 fold change
1,RRIRVRPPRLPRPRPRPVFYPRP,-0.178
2,RRIRWRPPRLPRPRPRPLYIPRP,-0.872
3,RRIRNRPPRLPRPRPRPKGHPRP,-0.104
4,RRIRERPPRLPRPRPRPSSGPRP,-0.648
5,RRIRGRPPRLPRPRPRPKYIPRP,0.167
6,RRIRMRPPRLPRPRPRPSKRPRP,0.386
7,RRIRWRPPRLPRPRPRPTDTPRP,-0.0769
8,RRIRIRPPRLPRPRPRPECVPRP,0.0147
9,RRIRERPPRLPRPRPRPRCYPRP,-0.138
10,RRIRYRPPRLPRPRPRPSIPPRP,-1.32
11,RRIRVRPPRLPRPRPRPMTQPRP,0.181
12,RRIRFRPPRLPRPRPRPSQEPRP,-0.286
13,RRIRERPPRLPRPRPRPACWPRP,0.715
14,RRIRMRPPRLPRPRPRPDILPRP,1.45
15,RRIRWRPPRLPRPRPRPPCSPRP,-0.00461
16,RRIRERPPRLPRPRPRPADMPRP,-0.0494
17,RRIRQRPPRLPRPRPRPRFCPRP,-0.16
18,RRIRIRPPRLPRPRPRPPEQPRP,0.118
19,RRIRARPPRLPRPRPRPLIRPRP,-0.0546
20,RRIRVRPPRLPRPRPRPSEYPRP,-0.418
21,RRIRSRPPRLPRPRPRPEVDPRP,0.51
22,RRIRSRPPRLPRPRPRPYPMPRP,-0.035
23,RRIRDRPPRLPRPRPRPLIRPRP,-0.0502
24,RRIRWRPPRLPRPRPRPQPVPRP,0.135
25,RRIRERPPRLPRPRPRPYYLPRP,-0.827

row,Sequence,shrunken log2 fold change
1,RRIRQRPPRLPRPRPRPPYEPRP,-0.114
2,RRIRDRPPRLPRPRPRPIPYPRP,-0.0147
3,RRIRNRPPRLPRPRPRPFMGPRP,-0.168
4,RRIRQRPPRLPRPRPRPQIMPRP,-0.528
5,RRIRRRPPRLPRPRPRPRRNPRP,0.223
6,RRIRQRPPRLPRPRPRPGAGPRP,0.451
7,RRIRTRPPRLPRPRPRPVYSPRP,-0.239
8,RRIRKRPPRLPRPRPRPNKPPRP,-0.0304
9,RRIRARPPRLPRPRPRPDGRPRP,0.197
10,RRIRCRPPRLPRPRPRPGWSPRP,-0.0169
11,RRIRHRPPRLPRPRPRPSQHPRP,-0.411
12,RRIRNRPPRLPRPRPRPEGYPRP,-0.169
13,RRIRTRPPRLPRPRPRPCTNPRP,-0.0102
14,RRIRIRPPRLPRPRPRPFDLPRP,-0.348
15,RRIRHRPPRLPRPRPRPWYRPRP,-0.0954
16,RRIRSRPPRLPRPRPRPRDYPRP,-0.341
17,RRIRMRPPRLPRPRPRPVISPRP,-0.28
18,RRIRARPPRLPRPRPRPPHDPRP,1.02
19,RRIRPRPPRLPRPRPRPCDDPRP,0.0508
20,RRIRSRPPRLPRPRPRPARPPRP,0.691
21,RRIRDRPPRLPRPRPRPFDEPRP,0.0788
22,RRIRSRPPRLPRPRPRPCSAPRP,-0.0813
23,RRIRNRPPRLPRPRPRPRTIPRP,-0.221
24,RRIRHRPPRLPRPRPRPNKPPRP,-0.0637
25,RRIRVRPPRLPRPRPRPCFIPRP,-0.599

row,Sequence,shrunken log2 fold change
1,RRIRRRPPRLPRPRPRPERNPRP,-0.085
2,RRIRARPPRLPRPRPRPGDWPRP,0.8
3,RRIRDRPPRLPRPRPRPHEIPRP,-0.0115
4,RRIRARPPRLPRPRPRPIEDPRP,-0.0663
5,RRIRCRPPRLPRPRPRPHSAPRP,0.0702
6,RRIRIRPPRLPRPRPRPYVNPRP,-0.0125
7,RRIRIRPPRLPRPRPRPRGQPRP,0.413
8,RRIRTRPPRLPRPRPRPGVMPRP,0.0539
9,RRIRARPPRLPRPRPRPPEVPRP,1.17
10,RRIRTRPPRLPRPRPRPKDGPRP,-0.0362
11,RRIRDRPPRLPRPRPRPAVAPRP,0.309
12,RRIRDRPPRLPRPRPRPGDNPRP,2.29
13,RRIRTRPPRLPRPRPRPTYYPRP,-0.359
14,RRIRRRPPRLPRPRPRPRNWPRP,0.319
15,RRIRKRPPRLPRPRPRPWEVPRP,0.0986
16,RRIRIRPPRLPRPRPRPFICPRP,-0.304
17,RRIRERPPRLPRPRPRPEQSPRP,-0.0108
18,RRIRGRPPRLPRPRPRPVADPRP,1.34
19,RRIRVRPPRLPRPRPRPLPGPRP,0.547
20,RRIRNRPPRLPRPRPRPRCGPRP,0.0586
21,RRIRSRPPRLPRPRPRPLEPPRP,-0.132
22,RRIRERPPRLPRPRPRPYSIPRP,-0.0605
23,RRIRYRPPRLPRPRPRPQNTPRP,-1.07
24,RRIRGRPPRLPRPRPRPIHDPRP,-0.126
25,RRIRDRPPRLPRPRPRPGHQPRP,0.137
